The values that follow come from patent publication US12679878B2, “CRF2 receptor agonists and their use in therapy” (SANOFI, priority 2020, dated 2026).

Test [1] deals with T1, recombinant human CRF2 (HEK cell membranes) (human, UniProt Q13324 1-411).
T1 construct: Whole receptor in membranes prepared from HEK cells; also called CRF2a (h); CRF2 receptor
T1 sequence (looked up): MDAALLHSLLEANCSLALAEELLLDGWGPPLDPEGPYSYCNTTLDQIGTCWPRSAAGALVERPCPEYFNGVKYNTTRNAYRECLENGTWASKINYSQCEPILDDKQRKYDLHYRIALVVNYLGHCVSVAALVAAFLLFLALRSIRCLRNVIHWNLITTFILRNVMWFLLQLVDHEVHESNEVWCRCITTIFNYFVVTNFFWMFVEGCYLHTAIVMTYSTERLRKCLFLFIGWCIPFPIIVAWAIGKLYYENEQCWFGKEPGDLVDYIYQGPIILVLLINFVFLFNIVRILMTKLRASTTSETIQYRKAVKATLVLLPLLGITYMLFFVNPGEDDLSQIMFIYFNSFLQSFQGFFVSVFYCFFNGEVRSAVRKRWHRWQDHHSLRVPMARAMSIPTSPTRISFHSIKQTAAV
The test can be described thus: Hill coefficient of the competition curve against [125]sauvagine, HEK membranes with recombinant human CRF2. As for the experimental part: (§1) HEK cells expressing recombinant human CRF2 were used as a source of receptor for membrane preparation.
(§2) IC50 values (concentration causing a half-maximal inhibition of control specific binding) and Hill coefficients (nH) were determined by non-linear regression analysis of the competition curves generated with mean replicate values using Hill equation curve fitting. The inhibition constants (Ki) were calculated using the Cheng Prusoff equation [Ki=IC50/(1+L/KD) where L is the concentration of radioligand in the assay, and KD is the affinity of the radioligand for the receptor). A Scatchard plot was used to determine the KD.

The target in test [2] is T2, anti-target CRF1R receptor (UniProt P34998 24-415, limits assumed).
T2 sequence (looked up): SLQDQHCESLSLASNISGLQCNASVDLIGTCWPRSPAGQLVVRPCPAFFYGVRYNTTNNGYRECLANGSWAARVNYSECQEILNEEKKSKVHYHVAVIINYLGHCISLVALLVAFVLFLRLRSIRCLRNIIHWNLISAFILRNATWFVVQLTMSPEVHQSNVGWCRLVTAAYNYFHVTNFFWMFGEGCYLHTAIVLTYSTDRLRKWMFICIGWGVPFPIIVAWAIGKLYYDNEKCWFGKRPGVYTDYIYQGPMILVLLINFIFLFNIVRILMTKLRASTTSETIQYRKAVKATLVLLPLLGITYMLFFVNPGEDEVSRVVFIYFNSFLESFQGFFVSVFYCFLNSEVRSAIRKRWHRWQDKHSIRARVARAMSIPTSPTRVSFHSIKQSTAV
The test can be described thus: cell-based or functional assay.

In test [3] the target is T1, recombinant human CRF2 (HEK cell …). The test can be described thus: radioligand competition against [125]sauvagine (0.1 nM), HEK membranes with recombinant human CRF2; Cheng Prusoff. As for the experimental part: as §1, §2
In test [4] the target is T3, endogenous human CRF2 (NCI-H82 cells) (human, UniProt Q13324 20-411).
T3 sequence (looked up): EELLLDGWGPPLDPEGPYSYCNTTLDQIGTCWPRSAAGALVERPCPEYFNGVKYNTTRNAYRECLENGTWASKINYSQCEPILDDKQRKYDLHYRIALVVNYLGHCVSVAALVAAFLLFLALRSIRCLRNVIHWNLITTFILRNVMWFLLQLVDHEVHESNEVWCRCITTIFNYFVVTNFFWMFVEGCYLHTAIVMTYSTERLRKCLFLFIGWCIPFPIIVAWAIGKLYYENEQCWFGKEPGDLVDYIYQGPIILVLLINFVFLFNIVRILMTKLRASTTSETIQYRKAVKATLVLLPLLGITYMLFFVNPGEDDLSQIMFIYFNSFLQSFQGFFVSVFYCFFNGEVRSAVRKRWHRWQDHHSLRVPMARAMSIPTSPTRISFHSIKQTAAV
The test can be described thus: cell-based or functional assay.

Test [5] concerns the target rat CRF2R α receptor (rat, UniProt P47866 20-411). Put plainly: cell-based or functional assay.

Starred links: 1 amine or outer side, 2 acyl side, 3 side chain; linkers in the order of their positions; H or OH if unused. Groups on a side chain read outwards from the residue. No end group written: not given here. *: point of attachment. C20 diacid = O=C(O)CCCCCCCCCCCCCCCCCCC(=O)*; C18 diacid = O=C(O)CCCCCCCCCCCCCCCCC(=O)*; γGlu = O=C(O)[C@H](CCC(=O)[*:2])N[*:1]; AEEA = NCCOCCOCC(=O)O

On to FTLSLDVPTKIK([AEEA-AEEA-γGlu-C20 diacid])QILLKQQKQKKERQQAEKNKQLLEQI-NH2 [peptide of SEQ ID NO: 59], for which, in test [1], the nH was found to be 0.6. In test [2], the “EC50[nM] 0% HSA (cAMP, CRF1R-overexpression CHO cells)” value (shortened to “EC50[nM] 0% HSA”) is over 1000 nM and the “Emax (%) (cAMP, CRF1R-overexpression CHO cells)” value (shortened to “Emax (%)”) amounted to 11.1%. Moreover, in test [3], the Ki was 7.2 nM. The “EC50 [nM] (cAMP, NCI-H82 cells)” value in test [4] is 6.8 nM. Besides, the “EC50 [nM], 0% HSA (cAMP, A7R5 cells)” value in test [5] was found to be 0.34 nM.

B1: peptide of SEQ ID NO: 35 (peptide)
peptide: IVLSLDVPIKLK([AEEA-AEEA-γGlu-C18 diacid])KILLEQEKQKKQREQAETNKQILAQV-NH2
modifications: N-terminus assumed
SMILES: CC[C@H](C)[C@H](N)C(=O)N[C@H](C(=O)N[C@@H](CC(C)C)C(=O)N[C@@H](CO)C(=O)N[C@@H](CC(C)C)C(=O)N[C@@H](CC(=O)O)C(=O)N[C@H](C(=O)N1CCC[C@H]1C(=O)N[C@H](C(=O)N[C@@H](CCCCN)C(=O)N[C@@H](CC(C)C)C(=O)N[C@@H](CCCCNC(=O)COCCOCCNC(=O)COCCOCCNC(=O)CC[C@H](NC(=O)CCCCCCCCCCCCCCCCC(=O)O)C(=O)O)C(=O)N[C@@H](CCCCN)C(=O)N[C@H](C(=O)N[C@@H](CC(C)C)C(=O)N[C@@H](CC(C)C)C(=O)N[C@@H](CCC(=O)O)C(=O)N[C@@H](CCC(N)=O)C(=O)N[C@@H](CCC(=O)O)C(=O)N[C@@H](CCCCN)C(=O)N[C@@H](CCC(N)=O)C(=O)N[C@@H](CCCCN)C(=O)N[C@@H](CCCCN)C(=O)N[C@@H](CCC(N)=O)C(=O)N[C@@H](CCCNC(=N)N)C(=O)N[C@@H](CCC(=O)O)C(=O)N[C@@H](CCC(N)=O)C(=O)N[C@@H](C)C(=O)N[C@@H](CCC(=O)O)C(=O)N[C@H](C(=O)N[C@@H](CC(N)=O)C(=O)N[C@@H](CCCCN)C(=O)N[C@@H](CCC(N)=O)C(=O)N[C@H](C(=O)N[C@@H](CC(C)C)C(=O)N[C@@H](C)C(=O)N[C@@H](CCC(N)=O)C(=O)N[C@H](C(N)=O)C(C)C)[C@@H](C)CC)[C@@H](C)O)[C@@H](C)CC)[C@@H](C)CC)C(C)C)C(C)C
For B1, the nH in test [1] amounted to 1.7. For the same molecule, in test [2], the “EC50[nM] 0% HSA” value is over 1000 nM and the “Emax (%)” value is 1.77%. The Ki in test [3] came out at 7.9 nM. Further, the “EC50 [nM] (cAMP, NCI-H82 cells)” value in test [4] turned out to be 23 nM. Also, the “EC50 [nM], 0% HSA (cAMP, A7R5 cells)” value in test [5] came to 0.81 nM.

B2: peptide of SEQ ID NO: 68 (peptide)
peptide: IVLSLDVPIKLK([AEEA-AEEA-γGlu-C18 diacid])QILLEQERQKKQREQAETNKQILAQV-NH2
modifications: N-terminus assumed
SMILES: CC[C@H](C)[C@H](N)C(=O)N[C@H](C(=O)N[C@@H](CC(C)C)C(=O)N[C@@H](CO)C(=O)N[C@@H](CC(C)C)C(=O)N[C@@H](CC(=O)O)C(=O)N[C@H](C(=O)N1CCC[C@H]1C(=O)N[C@H](C(=O)N[C@@H](CCCCN)C(=O)N[C@@H](CC(C)C)C(=O)N[C@@H](CCCCNC(=O)COCCOCCNC(=O)COCCOCCNC(=O)CC[C@H](NC(=O)CCCCCCCCCCCCCCCCC(=O)O)C(=O)O)C(=O)N[C@@H](CCC(N)=O)C(=O)N[C@H](C(=O)N[C@@H](CC(C)C)C(=O)N[C@@H](CC(C)C)C(=O)N[C@@H](CCC(=O)O)C(=O)N[C@@H](CCC(N)=O)C(=O)N[C@@H](CCC(=O)O)C(=O)N[C@@H](CCCNC(=N)N)C(=O)N[C@@H](CCC(N)=O)C(=O)N[C@@H](CCCCN)C(=O)N[C@@H](CCCCN)C(=O)N[C@@H](CCC(N)=O)C(=O)N[C@@H](CCCNC(=N)N)C(=O)N[C@@H](CCC(=O)O)C(=O)N[C@@H](CCC(N)=O)C(=O)N[C@@H](C)C(=O)N[C@@H](CCC(=O)O)C(=O)N[C@H](C(=O)N[C@@H](CC(N)=O)C(=O)N[C@@H](CCCCN)C(=O)N[C@@H](CCC(N)=O)C(=O)N[C@H](C(=O)N[C@@H](CC(C)C)C(=O)N[C@@H](C)C(=O)N[C@@H](CCC(N)=O)C(=O)N[C@H](C(N)=O)C(C)C)[C@@H](C)CC)[C@@H](C)O)[C@@H](C)CC)[C@@H](C)CC)C(C)C)C(C)C
Take B2: the nH in test [1] came to 0.8. In addition, in test [2], the “EC50[nM] 0% HSA” value is over 1000 nM and the “Emax (%)” value is 12.3%. Besides, the Ki in test [3] turned out to be 5.4 nM. Moreover, the “EC50 [nM], 0% HSA (cAMP, A7R5 cells)” value in test [5] was found to be 1.74 nM.

One may read the Ki as the equilibrium dissociation constant of an inhibitor or competing ligand from its target.
